According to article PMC6823378, “Clathrin light chain A drives selective myosin VI recruitment to clathrin-coated pits under membrane tension” (Nature Communications, 2019):
Numbering of substitutions follows the chain as printed. Numbers in names are those of the source. Values belong to the molecule of their own block, whether it stands above or below them. Ends that are not written are not given here. * marks the point of attachment. 5FAM = O=C1OC2(c3ccc(O)cc3Oc3cc(O)ccc32)c2ccc(C(=O)*)cc21

T1: myosin VI^998–1131 of the long isoform (myosin VI_(long)), cleaved from GST and purified (human, UniProt Q9UM54 998-1131)
T1 chain: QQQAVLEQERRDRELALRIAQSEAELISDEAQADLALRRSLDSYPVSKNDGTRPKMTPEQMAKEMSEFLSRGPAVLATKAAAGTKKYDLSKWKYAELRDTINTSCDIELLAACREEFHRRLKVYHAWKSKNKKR

T2: His-Hip1R coiled-coil region (amino acids 346–655) (UniProt O75146 346-655)
T2 construct: also called His-Hip1R^346–655; Hip1R^346–655; source: bacterially purified (pRSF-duet)
T2 sequence (looked up): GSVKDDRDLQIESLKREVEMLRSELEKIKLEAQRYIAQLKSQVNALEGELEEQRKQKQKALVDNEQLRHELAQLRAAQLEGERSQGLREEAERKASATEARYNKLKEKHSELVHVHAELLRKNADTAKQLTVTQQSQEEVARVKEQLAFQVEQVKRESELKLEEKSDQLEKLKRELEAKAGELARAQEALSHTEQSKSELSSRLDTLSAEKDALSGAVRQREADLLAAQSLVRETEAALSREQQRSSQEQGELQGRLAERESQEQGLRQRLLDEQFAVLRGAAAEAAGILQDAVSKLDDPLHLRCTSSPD

T3: 5-carboxyfluorescein (5-FAM)-conjugated CLCa peptide 51–61 (human, UniProt P09496 51-61, also: 5-FAM conjugated, site not given here)
T3 construct: clathrin light chain A (CLCa), human, amino acids 51–61; source: synthetic peptide (GenScript)
T3 peptide (looked up): AFAILDGGAPG

T4: 5-carboxyfluorescein (5-FAM)-conjugated CLCa peptide 51–66 (human, UniProt P09496 51-66, also: 5-FAM conjugated, site not given here)
T4 construct: clathrin light chain A (CLCa), human, amino acids 51–66; source: synthetic peptide (GenScript)
T4 peptide (looked up): AFAILDGGAPGPQPHG

T5: myosin VI^1069–1131 (human, UniProt Q9UM54 1069-1131)
T5 chain: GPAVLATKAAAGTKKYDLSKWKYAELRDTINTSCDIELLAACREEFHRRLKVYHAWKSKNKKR

B1: CLCa^46–61, recombinant, cleaved from GST (for the NMR structure) (peptide, UniProt P09496 46-61, looked up)
peptide: IENDEAFAILDGGAPG
notes: clathrin light chain A (CLCa), human, amino acids 46–61; 13C,15N-labelled in one of the two samples; source: E. coli BL21 (DE3), GST fusion cleaved with PreScission Protease in the presence of myosin VI, purified (SEC)
B2: CLCa full length, bacterially produced (ITC; reconstitution of cages) (natural protein, human, UniProt P09496 1-248, looked up)
chain: MAELDPFGAPAGAPGGPALGNGVAGAGEEDPAAAFLAQQESEIAGIENDEAFAILDGGAPGPQPHGEPPGGPDAVDGVMNGEYYQESNGPTDSYAAISQVDRLQSEPESIRKWREEQMERLEALDANSRKQEAEWKEKAIKELEEWYARQDEQLQKTKANNRVADEAFYKQPFADVIGYVTNINHPCYSLEQAAEEAFVNDIDESSPGTEWERVARLCDFNPKSSKQAKDVSRMRSVLISLKQAPLVH
notes: clathrin light chain A (CLCa), human; Cleavage from GST is told for the cage reconstitution; also called CLCa FL; CLCa WT; source: bacterially produced and cleaved from GST, purified
B3: myosin VI^1050–1131 of the long isoform, cleaved from GST and purified (domain or fragment, human, UniProt Q9UM54 1050-1131, looked up)
chain: RPKMTPEQMAKEMSEFLSRGPAVLATKAAAGTKKYDLSKWKYAELRDTINTSCDIELLAACREEFHRRLKVYHAWKSKNKKR
notes: 15N- or 13C,15N-labelled in some NMR samples; also called Myo6; source: E. coli Rosetta (DE3) or BL21 (DE3), GST fusion cleaved with PreScission Protease, purified (ion exchange or SEC)
B4: CLCa I54D full length (ITC) (natural protein, human, UniProt P09496 1-248, looked up)
chain: B2 chain with I54D
notes: clathrin light chain A (CLCa), human, I54D
B5: GST-CLCa fragment of amino acids 47–97 (domain or fragment, human, UniProt P09496 47-97, looked up)
chain: ENDEAFAILDGGAPGPQPHGEPPGGPDAVDGVMNGEYYQESNGPTDSYAAI
notes: clathrin light chain A (CLCa), human, amino acids 47–97; also called CLCa 47–97; source: E. coli Rosetta (DE3), on glutathione-sepharose beads
B6: myosin VI^998–1131 of the long isoform (myosin VI_(long)), cleaved from GST and purified (domain or fragment, human, UniProt Q9UM54 998-1131, looked up)
chain: T1 chain
notes: source: E. coli Rosetta (DE3), GST fusion cleaved with PreScission Protease, purified (ion exchange)
B7: 5-carboxyfluorescein (5-FAM)-conjugated CLCa peptide 46–61 (peptide, UniProt P09496 46-61, looked up)
peptide: 5FAM-IENDEAFAILDGGAPG
notes: clathrin light chain A (CLCa), human, amino acids 46–61; also called CLCa^46–61; source: synthetic peptide (GenScript)

How the values were obtained:
[1] = target: myosin VI^1050–1131 of the long isoform, cleaved from GST and purified (UniProt Q9UM54); assay: GST pull-down, Coomassie, band quantitation; conditions: parent: est. 23; read off a plot
myosin VI^1050–1131 of the long isoform, cleaved from GST and purified (UniProt Q9UM54), sequence (Q9UM54 whole entry, looked up, the tested form may be a part, canonical isoform): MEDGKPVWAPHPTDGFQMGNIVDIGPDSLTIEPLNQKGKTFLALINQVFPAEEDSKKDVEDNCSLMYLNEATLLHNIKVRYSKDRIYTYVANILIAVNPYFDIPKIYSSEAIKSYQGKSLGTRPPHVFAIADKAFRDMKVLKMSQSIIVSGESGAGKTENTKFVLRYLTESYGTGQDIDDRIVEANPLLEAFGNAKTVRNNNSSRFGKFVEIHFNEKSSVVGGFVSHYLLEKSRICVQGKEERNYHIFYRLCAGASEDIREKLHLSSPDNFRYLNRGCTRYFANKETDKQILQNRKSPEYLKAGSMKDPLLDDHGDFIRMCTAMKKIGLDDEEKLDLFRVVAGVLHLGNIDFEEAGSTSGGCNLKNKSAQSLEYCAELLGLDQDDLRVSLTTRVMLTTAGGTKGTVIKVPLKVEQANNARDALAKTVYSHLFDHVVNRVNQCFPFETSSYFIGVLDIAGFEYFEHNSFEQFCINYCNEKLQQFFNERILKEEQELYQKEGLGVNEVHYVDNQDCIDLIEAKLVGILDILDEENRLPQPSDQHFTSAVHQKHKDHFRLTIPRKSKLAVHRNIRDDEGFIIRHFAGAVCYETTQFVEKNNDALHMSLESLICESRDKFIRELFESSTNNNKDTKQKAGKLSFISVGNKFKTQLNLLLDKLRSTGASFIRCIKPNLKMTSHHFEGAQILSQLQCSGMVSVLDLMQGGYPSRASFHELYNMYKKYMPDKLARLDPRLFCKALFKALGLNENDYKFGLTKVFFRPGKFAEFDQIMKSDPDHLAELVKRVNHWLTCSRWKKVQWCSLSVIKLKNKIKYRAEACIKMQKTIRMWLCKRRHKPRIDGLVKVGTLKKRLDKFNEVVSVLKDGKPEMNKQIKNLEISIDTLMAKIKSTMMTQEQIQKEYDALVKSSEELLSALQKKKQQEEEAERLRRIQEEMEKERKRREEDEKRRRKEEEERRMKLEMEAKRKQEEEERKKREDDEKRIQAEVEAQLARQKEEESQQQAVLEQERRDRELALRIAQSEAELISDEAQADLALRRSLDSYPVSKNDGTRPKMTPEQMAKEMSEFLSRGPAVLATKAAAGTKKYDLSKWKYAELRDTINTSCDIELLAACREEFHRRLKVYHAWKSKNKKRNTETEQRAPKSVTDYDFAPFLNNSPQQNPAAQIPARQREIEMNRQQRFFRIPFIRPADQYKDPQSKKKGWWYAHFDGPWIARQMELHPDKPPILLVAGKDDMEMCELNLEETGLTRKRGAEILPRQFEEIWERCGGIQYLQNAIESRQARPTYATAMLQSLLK

[2] = target: 5-carboxyfluorescein (5-FAM)-conjugated CLCa peptide 46–61 (human) (UniProt P09496); assay: fluorescence polarisation; 20–50 nM 5-FAM-conjugated CLCa peptide titrated with purified myosin VI fragment from ~150 µM, 22 °C, 384-well plate
[3] = target: T1, myosin VI^998–1131 of the long isoform …; assay: FP
[4] = target: B3; assay: NMR structure; complex of myosin VI^1050–1131 and CLCa^46–61, 221 intermolecular NOEs; 10 °C, 20 mM NaPO4 pH 6.5, 50 mM NaCl, 2 mM DTT; conditions: both partners purified
[5] = target: T2, His-Hip1R coiled-coil region (amino …); assay: ITC; 380 µM CLCa WT or I54D titrated into 20 µM Hip1R^346–655 or myosin VI^1050–1131 in the cell; 20 mM Tris-HCl pH 8.0, 150 mM NaCl, 2.5% glycerol, 25 °C; one-set-of-sites model; conditions: both partners purified
[6] = target: B3; assay: as above; conditions: both partners purified
[7] = target: B2; assay: as above; conditions: both partners purified
[8] = target: B6; assay: pull-down; GST-CLC proteins (1.5 μM) on glutathione sepharose beads incubated 1 h at 4 °C in JS buffer with cleaved and purified myosin VI fragments; SDS-PAGE, Coomassie; conditions: both partners purified
[9] = target: T3, 5-carboxyfluorescein (5-FAM)-conjugated …; assay: fluorescence polarisation; 20–50 nM 5-FAM-conjugated CLCa peptide titrated with purified myosin VI fragment from ~150 µM, 22 °C, 384-well plate; conditions: both partners purified
[10] = target: T4, 5-carboxyfluorescein (5-FAM)-conjugated …; assay: as above; conditions: both partners purified
[11] = target: T5, myosin VI^1069–1131; assay: FP
[12] = target: B6; assay: fluorescence polarisation; 20–50 nM 5-FAM-conjugated CLCa peptide titrated with purified myosin VI fragment from ~150 µM, 22 °C, 384-well plate; conditions: both partners purified
[13] = target: B3; assay: as above; conditions: both partners purified

response [1]: 3 % of binding
Molecule: GST-CLCa 46–61 WT I54D

difference in binding affinity against the wild type [2]: 2 log-fold
Molecule: myosin VI Y1121A mutant used for FP analysis (domain or fragment)

Kd [2]: 96 µM
Molecule: myosin VI^998–1131 of the short isoform (myosin VI_(short)), cleaved from GST and purified (domain or fragment)

Kd [3]: 13.1 µM
Molecule: AFAILDGGAPGPQPHG (also: 5-FAM conjugated, site not given here) [5-carboxyfluorescein (5-FAM)-conjugated CLCa peptide 51–66]

Molecule: B1
binding result [4]: binds

Molecule: B2
Kd [5]: 1370 nM | dH [5]: -9.7 kcal/mol | stoichiometry N [5]: 1.15 sites | dH [6]: -11.6 kcal/mol | stoichiometry N [6]: 0.79 sites

Molecule: B3
Kd [7]: 90 nM

Molecule: B4
Kd [5]: 990 nM | dH [5]: -8.72 kcal/mol | stoichiometry N [5]: 1.01 sites

Molecule: B5
binding result [8]: binds

Molecule: B6
fold higher affinity of peptide 46–61 than of this peptide [9]: 10 fold | fold higher affinity of peptide 46–61 than of this peptide [10]: 10 fold

Kd [3]: 22.6 µM
Molecule: AFAILDGGAPG (also: 5-FAM conjugated, site not given here) [5-carboxyfluorescein (5-FAM)-conjugated CLCa peptide 51–61]

Molecule: B7
Kd [11]: 22 µM | Kd [12]: 930 nM | Kd [13]: 400 nM
